Test results: paper PMC11838285 (bioRxiv, 2025)

Target: RPB1 subunit of human RNA Polymerase II (human, UniProt P24928 1-1970)
Assay: cryo-EM structure

binding result: binds
B1: RECQL5_(1–620) D157A (domain or fragment)
chain: MSSHHTTFPFDPERRVRSTLKKVFGFDSFKTPLQESATMAVVKGNKDVFVCMPTGAGKSLCYQLPALLAKGITIVVSPLIALIQDQVDHLLTLKVRVSSLNSKLSAQERKELLADLEREKPQTKILYITPEMAASSSFQPTLNSLVSRHLLSYLVVAEAHCVSQWGHDFRPDYLRLGALRSRLGHAPCVALTATATPQVQEDVFAALHLKKPVAIFKTPCFRANLFYDVQFKELISDPYGNLKDFCLKALGQEADKGLSGCGIVYCRTREACEQLAIELSCRGVNAKAYHAGLKASERTLVQNDWMEEKVPVIVATISFGMGVDKANVRFVAHWNIAKSMAGYYQESGRAGRDGKPSWCRLYYSRNDRDQVSFLIRKEVAKLQEKRGNKASDKATIMAFDALVTFCEELGCRHAAIAKYFGDALPACAKGCDHCQNPTAVRRRLEALERSSSWSKTCIGPSQGNGFDPELYEGGRKGYGDFSRYDEGSGGSGDEGRDEAHKREWNLFYQKQMQLRKGKDPKIEEFVPPDENCPLKEASSRRIPRLTVKAREHCLRLLEEALSSNRQSTRTADEADLRAKAVELEHETFRNAKVANLYKASVLKKVADIHRASKDGQPYDM
